Experimental data: the nanobody polyreactivity screen of Harvey et al. (2022)

test: yeast display, Sf9 membrane polyspecificity reagent, FACS + sequencing; frameworks hold sequencing errors
Outline: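 Sorting gates, low and high (top ~1%), were placed on anti-HA fluorescence to track expression and on streptavidin fluorescence to track reagent binding. A clone's polyreactivity label is taken from the gate it came out of. The reagent was 10% biotinylated, detergent-solubilized Sf9 membrane, applied for 1 hour at 4 °C to galactose-induced yeast display cells.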

Sequence	polyreactivity (PSR sort gate)
QVQLVESGGGLVQAGGSLRLSCAASGRIFGSYVMGWYRQAPGKVRELVAAISRRGGSTYYADSVKGRFTISRDNAKNTVYLQMNSLKPEDTAVYYCAAEFSPSSNPYDYWGQGTQVTVSS	high polyreactivity
QVQLVESGGGLVQAGGSLRLSCAASGRIFGTNAMGWYRQAPGKERELVAAISRGGNTYYADSVKGRFTISRDNAKNTVYLQMNSLKPEDTAVYYCAARPGSGRSYTSDYWGQGTQVTVSS	high polyreactivity
QVQLVESGGGLVQAGGSLRLSCAASGRIFGTNAMGWYRQAPGKERELVAAISRSGGSTYYADSVKGRFTISRDNAKNTVYLQMNSLKPEDTAVYYCATDGRHTYYYWGQGTQVTVST	high polyreactivity
QVQLVESGGGLVQAGGSLRLSCAASGRIFGTNAMGWYRQAPRKERELVADITSGGSTNYADSVKGRFTISRDNAKNTVYLQMNSLKPEDTAVYYCAADVIGDLRWYRDEYWGQVTQVTVSS	low polyreactivity
QVQLVESGGGLVQAGGSLRLSCAASGRIFGTYAMGWYRQAPGKERELVAAITSSGSTNYADSVKGRFTISRDTAKKTVYLQMNSLKPEDTAVYYCAAVWVVFYYCYTVPVHYEYWGQGTQVTVSS	low polyreactivity
QVQLVESGGGLVQAGGSLRLSCAASGRIFGTYTMGWYRQAPGKERELVAAITTGGITNYADSVKGRFTISRDNAKNTVYLQMNSLKPEDTAVYYCNARWDYGAYEYWGQGTQVTVSS	low polyreactivity
QVQLVESGGGLVQAGGSLRLSCAASGRIFGVNAMGWYRQAPGKEREFVAVISSVGSTYYADSVKGRFTISRDNAKNTVYLQMKSLKPEDTAVYYCNAVVGRWFPYYLSDYWGQGTQVTVSS	low polyreactivity
QVQLVESGGGLVQAGGSLRLSCAASGRIFGVNAMGWYRQAPGKERELVAGISISGGSTHYADSVKGRFTISRDNAKNTVYLQMNSLKPEDTAVYYCAKRFYKYVSYWHDYWGQGTQVTVSS	low polyreactivity
QVQLVESGGGLVQAGGSLRLSCAASGRIFGVNAMGWYRQAPGKERELVAHIRSSGASTYYADSVKGRFTISRDNAKNTVYLQMNSLKPEDTAVYYCARDYFVDGPGYDYWGQGTQVTVSS	low polyreactivity
QVQLVESGGGLVQAGGSLRLSCAASGRIFGVNAMGWYRQAPGNERELVAHIRSSGASTYYADSVKGRFTISRDNAKNTVYLQMNSLKPEDTAVYYCARDYFVDGPGYDYWGQGTQVTVSS	low polyreactivity
QVQLVESGGGLVQAGGSLRLSCAASGRIFGVNAMGWYTQAPGKERELVAAIRYTGGSTYYADSVKGRFTISRDNAKNTVYLQMNSLKPEDTAVYYCAKARYTYSWSFGYWGQGTQVTVSS	low polyreactivity
QVQLVESGGGLVQAGGSLRLSCAASGRIFGVYAMGWYRQAPGKDREFVASITRGGGRTYYADSVKGRFTISRDNAKNTVYLQMNSLKPEDTAVYYCNAVVNSYPYYYWGQGTQVTVSS	high polyreactivity
QVQLVESGGGLVQAGGSLRLSCAASGRIFGVYAMGWYRQAPGKERELVAAISSGASTYYADSVKGRFTISRDNAKNTVYLQMNSLKPEDTAVYYCAKSVKGGTGYYYWGQGTQVTVSS	low polyreactivity
QVQLVESGGGLVQAGGSLRLSCAASGRIFGVYAMGWYRQAPGKERELVATIRSSGTRTNYADSVKGRFTISRDNAKNTVYLQMNSLKPEDTAVYYCAAGGRPYKLDFTRSDYWGQGTQVTVSS	low polyreactivity
QVQLVESGGGLVQAGGSLRLSCAASGRIFGWYAKGWYRQAPGKETELVAAISPGGSTKYADSVKGRFTISRDYAKNTVYLQMNSLKPEDTADYYFAADLFNYTTGRDYWGQGTQVTVSS	low polyreactivity
QVQLVESGGGLVQAGGSLRLSCAASGRIFGWYAMGCYIQAPGKERELVAAISSNGGSTYYADSVKGRFTISRDNAKNTVYLQMNSLKPEDTAVYYCAAVRVFQYKYDRFNYWGQGTQVTVSS	high polyreactivity
QVQLVESGGGLVQAGGSLRLSCAASGRIFGWYAMGSYRQAPGKEREFVAAITRRGGRTYYADSVKGRFTISRDNEKNNVYLQMNSLKPEDTAVYYCAVKYVRIGGVGPIVIYNYWGQGTQVTVSS	high polyreactivity
QVQLVESGGGLVQAGGSLRLSCAASGRIFGWYAMGWYRQAPGKEREFVAAITVTGGSTYYADSVKGRFTISRDNAKNTVYLQMNSLKPEDTALYYCAADRWYTRTGFDYWGQVTQVTVSS	low polyreactivity
QVQLVESGGGLVQAGGSLRLSCAASGRIFGWYAMGWYRQAPGKERELVAAISRGGTTYYADSVKGRFTISRDNAKNTVYLQMNSLKPEDTAVYYCAAPVPYYVPRRNEGDYWGQGTQVTVSS	low polyreactivity
QVQLVESGGGLVQAGGSLRLSCAASGRIFGWYAMGWYRQAPGKERELVAAISSAGRTYYADSVKGRFTISRDNAKNTDYLQMNSLKPEDTAVYYCAAEIARSFYRYTYYYWGQGTQVTVSS	high polyreactivity

Sequence	polyreactivity (PSR sort gate)
QVQLVESGGGLVQAGGSLRLSCAASGRIFGYNAMGWYRHAPGTERELVAAITNGGSTNYADSVKGRFTISRDNAKNTVYLQMNSLKPEDTAVYYCAADRGGLRWFWQVLYDYWGQGTQVTVSS	low polyreactivity
QVQLVESGGGLVQAGGSLRLSCAASGRIFGYNAMGWYRQAPGKERELVAAINSDGSKNYADSVKGRFTISRDNAKNTVYLQINSLNPEDTAVYYCAARWISVWSEGAEHDYWGQGTQVTVSS	low polyreactivity
QVQLVESGGGLVQAGGSLRLSCAASGRIFGYNAMGWYRQAPGKERELVDAITTSGGSTYYADSVKGRFTISRDNAKNTVYLQMNSLKPEDTAVYYCARDSLQVFYPYASDDYWGQGTQVTVSS	low polyreactivity
QVQLVESGGGLVQAGGSLRLSCAASGRIFGYNTMGWYRQAPGKERELVAAINSGGRTYYADSVKGRFPISRDNAKNTVYLQMNSLKPEDTAVYYCATTTYKRFYRAPTSKYDYWGQGTQVTVSS	high polyreactivity
QVQLVESGGGLVQAGGSLRLSCAASGRIFGYTMGWYRQAPGKERELVAAISKSGGSTYYADSVKGRFTISRDNAKNTVYLQMNSLKPEDTAVYYCAAEYGYGKRAYDSWGQGTQVTVSS	high polyreactivity
QVQLVESGGGLVQAGGSLRLSCAASGRIFGYYAMCWYRQAPGKERELVARITWYGGDTYYADSVKGRFTISRDNAKNTVYLQMNSLKPEHTAVYYCGADFVFYRQPDTYFYPHDYWGQGTQVTVTS	low polyreactivity
QVQLVESGGGLVQAGGSLRLSCAASGRIFGYYAMGWYRQAPGKEREFVAGITQRTDSTYYADSVKGRFTISRDNAKNTVYLQMKSLKPEDTAVYYCAARGYGGYHWGYYWGQGTQVTVSS	high polyreactivity
QVQLVESGGGLVQAGGSLRLSCAASGRIFGYYAMGWYRQAPGKERELVAAINSGSRTYYADSVKGRFTISRDNAKNTVYLQMISLKAEDTAVYDCAASVRYPPYRSSDGQRGGYWGQGTEVTVSS	high polyreactivity
QVQLVESGGGLVQAGGSLRLSCAASGRIFGYYAMGWYRQAPGKERELVAAIRRSGGSTYADSVKGRFTISRDNAKNTVYLQMNSLKPEDTAVYYCAAWIYEYDYWGQGTQVTVSS	high polyreactivity
QVQLVESGGGLVQAGGSLRLSCAASGRIFGYYAMGWYRQAPGKERELVAAISYRGSSTYYADSVKGRFTISRDNAKNTVYLQMNSLKPEDTAVYYCAAKGHGRTYDYWGQGTQVTVSS	high polyreactivity
QVQLVESGGGLVQAGGSLRLSCAASGRIFGYYAMGWYRQAPGKERELVAAIYSGGSTYYADSVKGRFTISRDNAKNTVYLQMNSLKPEDTAVYYCAAYYYGWYTPSQSPKYDYWGQGTQVTVSS	high polyreactivity
QVQLVESGGGLVQAGGSLRLSCAASGRIFGYYAMGWYRQAPGKERELVADITESGTSTYYADSVKGRFTISRDNAKNTVYLQMNSLKPEDTAVYYCAAGYWWRYALYGYWGQGTQVTVSS	low polyreactivity
QVQLVESGGGLVQAGGSLRLSCAASGRIFGYYAMGWYRQAPGKERELVAGIDWSGGNTYYADSVKGRFTISRDNAKNTVYLQMNSLKPEDTAVYYCNTEGGRDTAWYDYWGQGTQVTVSS	low polyreactivity
QVQLVESGGGLVQAGGSLRLSCAASGRIFGYYDMGWYRQAPGKERELVAAITWSGGSTYYADSVKGRFTISRDNAKNTVYLQMNSLKPEDTAVYYCAAEKRYRKAFDYWGQGTQVTVSS	high polyreactivity
QVQLVESGGGLVQAGGSLRLSCAASGRIFGYYGRGWYRQAPGKERELVARISGRGGSTYYADSVKGRFTLSRDNAKNTVYLQINSLKPEDTAVYYCNVVFSFWQYYAYDQGDYWGQGTQVTVSS	low polyreactivity
QVQLVESGGGLVQAGGSLRLSCAASGRIFGYYVMGWYRQAPGKDRELVATISRVGTTNYADSVKGRFTISRDNAKNTVYLQMNSLKPEDTAVYYCNADYTGHRGGNDYWGQGTQVTVSS	low polyreactivity
QVQLVESGGGLVQAGGSLRLSCAASGRIFGYYVMGWYRQAPGKERELVAAISRSGGSTYYADSVKGRFTISRDNAKNTVYLQMNSLKPEDTAVYYCAKRVCTYGFSGYDYWGQGTQVTVSS	high polyreactivity
QVQLVESGGGLVQAGGSLRLSCAASGRIFHFNAMGWYRQAPGKERELVATITKRGGRTYYADSVKGRFTISRDNAKNTVYLQMNSLKPEDTAVYYCNADQSRYSAVSGYDYWGQGTQVTVSS	high polyreactivity
QVQLVESGGGLVQAGGSLRLSCAASGRIFHGNAMGWYRPAPGKERELVAAITSGGRTFYADSVKGRFTISRDNAKNTVYLQMNRLKPEDTAVYYCNAPSIAGYAEYNSHDYWGQGTQVTVSS	high polyreactivity
QVQLVESGGGLVQAGGSLRLSCAASGRIFHGNAMGWYRQAPGKEREMVAAITSGGRTFYADSVKGRFTISRDNAKNTVYLQMNSLIPEDTAVFYCNAPSIAGYAEYNSHDYWGQGTQVTVSS	high polyreactivity
